Results reported in publication PMC10374912 (Nature Communications, 2023).

Target: T1, Rtg3-6XHis (recombinant, co-expressed with Rtg1) (C. albicans, UniProt A0A1D8PF20 1-520)
T1 construct: Rtg3, basic helix-loop-helix transcription factor of Candida albicans; also called tagged Rtg3; Rtg3X6his; source: E. coli BL21(DE3), co-expressed with Rtg1 from pColaDuet (pLC1452), purified (Ni-NTA, heparin, SEC)
T1 sequence (looked up): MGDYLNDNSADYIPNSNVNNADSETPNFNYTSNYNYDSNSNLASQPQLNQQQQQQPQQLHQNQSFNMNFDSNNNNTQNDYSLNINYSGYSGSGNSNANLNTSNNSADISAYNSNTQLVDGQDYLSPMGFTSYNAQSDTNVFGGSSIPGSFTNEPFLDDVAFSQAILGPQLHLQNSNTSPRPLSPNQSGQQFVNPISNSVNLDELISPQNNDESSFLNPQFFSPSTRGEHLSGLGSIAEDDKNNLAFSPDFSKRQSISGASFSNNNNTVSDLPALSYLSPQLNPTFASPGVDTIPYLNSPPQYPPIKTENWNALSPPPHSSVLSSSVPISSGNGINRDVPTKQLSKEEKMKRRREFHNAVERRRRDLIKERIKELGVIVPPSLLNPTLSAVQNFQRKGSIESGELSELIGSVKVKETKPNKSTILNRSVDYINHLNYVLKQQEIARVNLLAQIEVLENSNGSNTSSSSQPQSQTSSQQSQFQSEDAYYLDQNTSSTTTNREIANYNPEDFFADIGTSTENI
Assay: SEC; Rtg1 and Rtg3-6XHis co-expressed in E. coli, co-purified by Ni-NTA and heparin, then HiLoad 16/600 Superdex 200 pg; 25 mM HEPES-NaOH pH 7.8, 300 mM NaCl, 5% glycerol; ambient temperature; fractions on SDS-PAGE, Coomassie
Details: both partners purified

B1: Rtg1 (recombinant, co-expressed with Rtg3-6XHis) (natural protein, C. albicans, UniProt Q5APP3 1-274, looked up)
chain: MSQFGEFYDTYSVENNQQYDTDLNNSTNTPIVQSKQRNDNIIPSINIKQEDFDSVLSGSLDVKKQLSSSLNTAGVGIGSSYGNGGISKPQSRRNSTYIKSHEGSDNEDEDDQNDKDVGNERKRRDNINDKIQELLTLIPSEFFQSNTDNNTKTGTKVVKENSPEDDAVKNSGTKDGKPNKGQILTKSVEYLQYLQNLIDENNRKEVELIMRLKTLELKAANRPSENIPIRIGYTSAEKALGEIGVGPCSEEYFKNVLIKSASTSKSGRRGSTSG
notes: Rtg1, basic helix-loop-helix transcription factor of Candida albicans; untagged; source: E. coli BL21(DE3), co-expressed with Rtg3-6XHis from pColaDuet (pLC1452), purified (Ni-NTA, heparin, SEC)
stoichiometry N: ~1
